# Where “and” joins values, the source holds several entries; their conditions need not be identical. Equal entries are not always repeated.
# Experiments:
# Settings in all cases: both partners purified
# human cyclophilin A [1] = target: T1, human cyclophilin A (human, UniProt P62937 1-165); test: SPR
# T1 construct: also called CypA; peptidyl prolyl isomerase cyclophilin A; source: recombinant, highly pure; production and purification described previously [14]
# human cyclophilin A [2] = target: T1, human cyclophilin A; test: ITC
# human cyclophilin A [3] = target: T1, human cyclophilin A; test: SPR; remark: listed apart in the source
# T1 sequence (P62937 whole entry): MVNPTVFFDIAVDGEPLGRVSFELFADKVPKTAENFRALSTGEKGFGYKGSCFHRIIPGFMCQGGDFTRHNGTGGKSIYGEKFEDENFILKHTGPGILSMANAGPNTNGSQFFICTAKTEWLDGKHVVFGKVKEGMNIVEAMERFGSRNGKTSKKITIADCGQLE
Binder,Kd (human cyclophilin A [1]),koff (human cyclophilin A [1]),kon (human cyclophilin A [1]),Ka (human cyclophilin A [2]),Kd (human cyclophilin A [2]),dH (human cyclophilin A [2]),stoichiometry N (human cyclophilin A [2]),binding result (human cyclophilin A [3])
full-length synthetic HIV-1 Vpr (Vpr^1-96) (natural protein) MEQAPEDQGPQREPYNEWTLELLEELKSEAVRHFPRIWLHNLGQHIYETYGDTWAGVEAIIRILQQLLFIHFRIGCRHSRIGVTRQRRARNGASRS,310 nM and 320 nM,0.007 s⁻¹ and 0.00422 s⁻¹,32000 M⁻¹ s⁻¹ and 16000 M⁻¹ s⁻¹,,,,,
GCRHSRIGVTRQRRAR (HIV-1 Vpr residues 75-90; source: synthetic peptide) [Vpr^75-90],280 nM,0.0063 s⁻¹,81000 M⁻¹ s⁻¹,9e+06 M⁻¹ and 1.7e+07 M⁻¹,120 nM and 60 nM,-17.4 kcal/mol and -16.5 kcal/mol,0.98 and 1,
GCRHSAIGVTRQRRAR (source: synthetic peptide) [Vpr^75-90 (R80A)],7500 nM,0.027 s⁻¹,3800 M⁻¹ s⁻¹,,,,,
AVRHFPRIWLH [Vpr^30-40],,,,,,,,binds

# — article PMC3269379, “The Host-Pathogen interaction of human cyclophilin A and HIV-1 Vpr requires specific N-terminal and novel C-terminal domains” (BMC Structural Biology, 2011)
